Reference: paper PMC5964024

What was measured:
[1] = biological target: R5gp120-Hi (human) (UniProt P51681); assay: flow cytometry on cells
[2] = biological target: myc-tagged human CCR5 (wildtype) (human) (UniProt P51681); assay: flow cytometry on cells

Q: For “BaL gp120-CD4-FLAG (from UniProt P01730 26-209) (ligand)”, which Kd [1] is on record?
A: 12 nM

Q: What about the Kd [2] of the same substance?
A: 32 nM
